{
  "source": "paper PMC3755989",
  "about": "“Identification of Amino Acid Residues of ERH Required for Its Recruitment to Nuclear Speckles and Replication Foci in HeLa Cells” (PLoS ONE, 2013)",
  "binders": {"B1": {"name": "GST-tagged fragment L7 of human PDIP46/SKAR (domain or fragment)", "chain": "NKEEPPKELPAAEPVLSPLEGTKMTVNNLHPRVTEEDIVELFCVCGALKRARLVHPGVAEVVFVKKDDAITAYKKYNNRCLDGQPMKCNLHMNGNVITSDQPILLRLSDSPSMKKESELPRRVNSASSSNPPAEVDPDTILKALFKSSGASVTTQPTEFKIKL", "notes": "fragment L7 of human PDIP46/SKAR comprising residues 259-421, expressed from pGEX-4T-1/PDIP46/SKAR[L7]; also called GST-PDIP46/SKAR[L7]; PDIP46/SKAR[L7]; source: E. coli XL1 Blue MRF', batch purified on Glutathione-Agarose beads"}},
  "molecular_target": "T1, FLAG-tagged wild-type human ERH (enhancer of rudimentary homolog) (human, UniProt P84090 1-104)",
  "T1 construct": "wild-type human ERH, expressed from pQE30/ERH-FLAG (formerly pQE30/ER-FLAG); also called ERH-FLAG; wild-type ERH",
  "test": "pull-down; GST-PDIP46/SKAR[L7]- or GST-Ciz1[B]-coated Glutathione-Agarose beads incubated with equal amounts of purified FLAG-tagged ERH forms; binding buffer 20 mM HEPES pH 7.4, 50 mM NaCl, 75 mM KCl, 1 mM DTT, 1 mM EDTA, 10% glycerol, 0.05% Triton X-100; western blotting with anti-FLAG antibody",
  "details": "both partners purified",
  "data": [
    {"binder": "B1", "values": [
      {"measurement": "binding result", "value": "binds"}
    ]}
  ]
}
